Data from patent publication US20190010233A1 (JIANGSU HYAMAB PHARMACEUTICAL, published 2019).
Where two headings read alike, the source gives them in different places.

What was measured:
[1] = biological target: T1, human PD-L1^ECD-hFc protein (human, UniProt Q9NZQ7 19-239, biotinylated in the PD-1 binding ELISA (Table 3) and in the Octet assay (Table 12)); assay: ELISA, 3 nM mAb
T1 construct: The plain and the biotinylated protein are kept as one molecule; also called PD-L1-hFc; Immunogen A; not shown: human IgG Fc fragment (hFc)
T1 sequence (Q9NZQ7 19-239): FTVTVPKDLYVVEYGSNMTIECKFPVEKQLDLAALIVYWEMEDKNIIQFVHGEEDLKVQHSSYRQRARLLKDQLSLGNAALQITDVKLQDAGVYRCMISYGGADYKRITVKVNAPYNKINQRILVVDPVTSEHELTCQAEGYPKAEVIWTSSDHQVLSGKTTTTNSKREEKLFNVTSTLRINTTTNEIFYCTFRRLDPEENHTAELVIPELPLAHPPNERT

[2] = biological target: T2, cyno PD-L1^ECD-hFc protein (cyno, UniProt G7PSE7 19-239); assay: ELISA, 3 nM mAb
T2 construct: also called Cyno Monkey PD-L1^ECD-hFc
T2 sequence (G7PSE7 entry or part of it limits assumed): as the sequence (Q9NZQ7 19-239) above, with A33T, A34S, S62N, R68Q, Q82R, F173L, T185A, T192I, H215L counted along it

[3] = biological target: T1, human PD-L1^ECD-hFc protein; assay: ELISA, 30 nM mAb
[4] = biological target: T2, cyno PD-L1^ECD-hFc protein; assay: ELISA, 30 nM mAb
[5] = biological target: T1, human PD-L1^ECD-hFc protein; assay: ELISA, 0.3 nM mAb
[6] = biological target: T2, cyno PD-L1^ECD-hFc protein; assay: ELISA, 0.3 nM mAb
[7] = biological target: T1, human PD-L1^ECD-hFc protein; assay: ELISA, 0.03 nM mAb
[8] = biological target: T2, cyno PD-L1^ECD-hFc protein; assay: ELISA, 0.03 nM mAb
[9] = biological target: T1, human PD-L1^ECD-hFc protein; assay: ELISA, 0.003 nM mAb
[10] = biological target: T2, cyno PD-L1^ECD-hFc protein; assay: ELISA, 0.003 nM mAb
[11] = biological target: T1, human PD-L1^ECD-hFc protein; assay: ELISA, 0.0003 nM mAb
[12] = biological target: T2, cyno PD-L1^ECD-hFc protein; assay: ELISA, 0.0003 nM mAb
[13] = biological target: T1, human PD-L1^ECD-hFc protein; assay: ELISA, 0.00003 nM mAb
[14] = biological target: T2, cyno PD-L1^ECD-hFc protein; assay: ELISA, 0.00003 nM mAb
[15] = biological target: T3, full length human PD-L1 on cells (human, UniProt Q9NZQ7 19-290); assay: cell-based or functional assay
T3 sequence (Q9NZQ7 19-290 limits assumed): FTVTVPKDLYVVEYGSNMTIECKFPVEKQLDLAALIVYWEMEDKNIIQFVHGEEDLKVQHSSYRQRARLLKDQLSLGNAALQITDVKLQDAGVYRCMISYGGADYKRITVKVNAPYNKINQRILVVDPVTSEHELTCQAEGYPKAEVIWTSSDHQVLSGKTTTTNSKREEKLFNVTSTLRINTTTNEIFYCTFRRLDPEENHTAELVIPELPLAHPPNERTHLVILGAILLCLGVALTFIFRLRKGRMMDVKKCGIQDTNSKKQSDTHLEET

[16] = biological target: T1, human PD-L1^ECD-hFc protein; assay: ELISA receptor-ligand blocking assay: PD-L1 protein coated, fully human antibody titrated, blocked ligand PD-1, inhibition rate (%)
[17] = biological target: T1, human PD-L1^ECD-hFc protein; assay: ELISA receptor-ligand blocking assay: PD-L1 protein coated, fully human antibody titrated, blocked ligand B7.1, inhibition rate (%)
[18] = biological target: T3, full length human PD-L1 on cells; assay: cell-based or functional assay; remark: listed apart in the source
[19] = biological target: T3, full length human PD-L1 on cells; assay: cell-based or functional assay; remark: listed apart in the source
[20] = biological target: T3, full length human PD-L1 on cells; assay: cell-based or functional assay; remark: listed apart in the source
[21] = biological target: T3, full length human PD-L1 on cells; assay: cell-based or functional assay; remark: listed apart in the source

Row | Binder | OD450 nm [1] | OD450 nm [2] | OD450 nm [3] | OD450 nm [4] | OD450 nm [5] | OD450 nm [6] | OD450 nm [7] | OD450 nm [8] | OD450 nm [9] | OD450 nm [10] | OD450 nm [11] | OD450 nm [12] | OD450 nm [13] | OD450 nm [14] | IFN-γ (pg/mL), T cell stimulation assay, 0.001 µg/mL mAb [15] | IFN-γ (pg/mL), T cell stimulation assay, 0.01 µg/mL mAb [15] | IFN-γ (pg/mL), T cell stimulation assay, 0.1 µg/mL mAb [15] | IFN-γ (pg/mL), T cell stimulation assay, 1 µg/mL mAb [15] | IC50 (read off the curve) [16] | IC50 (read off the curve) [17] | further results
1 | fully human anti-PD-L1 antibody 127D2F3 (antibody, human IgG4 S228P, kappa, V domains shown, also called 127D2F3 (fully human)) VH: EVQLVESGGGLVQPGGSLRLSCVASGFTFSSYWMSWVRQAPGKGLEWVANIKQDGSEKYYVDSVKGRLTISRDNAKNSLYLQMKSLRAEDTAVYYCARDPIYSSYFDYWGQGILVTVSS VL: DIQMTQSPSSLSASVGDRVTITCRASQSISNYLNWYQQKPGKAPKLLIYAASSLQSGVPSRFSGSGSGTDFTLTISSLQPEDFAAYYCQQSYGIPFTFGPGTKVDIKR | 2.68 | 2.6 | 2.59 | 2.59 | 2.48 | 2.49 | 0.852 | 0.889 | 0.329 | 0.332 | 0.264 | 0.28 | 0.281 | 0.297 | 5090 pg/mL | 11200 pg/mL | 9340 pg/mL | 14100 pg/mL | ~2 nM | ~1 nM | 
2 | fully human anti-PD-L1 antibody 73G11B3 (antibody, human IgG4 S228P, kappa, V domains shown, also called 73G11B3 (fully human)) VH: EVQLVESGGGLVQPGGSLRLSCVVSGFTFSSYWMSWVRQTPGKGLEWVANIKQDGSEKYYVDSVKGRLTISRDNAKNSLYLQMNSLRAEDTAVYYCVRDRAVPGTGALDIWGQGTMVTVSS VL: not shown | 2.72 | 2.65 | 2.67 | 2.6 | 2.48 | 2.52 | 0.855 | 1 | 0.403 | 0.358 | 0.254 | 0.283 | 0.256 | 0.308 | 6780 pg/mL | 10900 pg/mL | 13100 pg/mL | 13500 pg/mL | ~1 nM | ~0.9 nM | IL-2 (pg/mL), MLR, 0.001 µg/mL mAb [18]: 215 pg/mL; IL-2 (pg/mL), MLR, 0.01 µg/mL mAb [18]: 274 pg/mL; IL-2 (pg/mL), MLR, 0.1 µg/mL mAb [18]: 654 pg/mL; IL-2 (pg/mL), MLR, 1 µg/mL mAb [18]: 729 pg/mL; IL-2 (pg/mL), MLR, 10 µg/mL mAb [18]: 601 pg/mL; IFN-γ (pg/mL), MLR, 0.001 µg/mL mAb [19]: 9790 pg/mL; IFN-γ (pg/mL), MLR, 0.01 µg/mL mAb [19]: 10700 pg/mL; IFN-γ (pg/mL), MLR, 0.1 µg/mL mAb [19]: 21700 pg/mL; IFN-γ (pg/mL), MLR, 1 µg/mL mAb [19]: 21700 pg/mL; IFN-γ (pg/mL), MLR, 10 µg/mL mAb [19]: 16900 pg/mL; IFN-γ (pg/mL), T cell stimulation assay, 0.001 µg/mL mAb [20]: 5120 pg/mL; IFN-γ (pg/mL), T cell stimulation assay, 0.01 µg/mL mAb [20]: 6340 pg/mL; IFN-γ (pg/mL), T cell stimulation assay, 0.1 µg/mL mAb [20]: 9360 pg/mL; IFN-γ (pg/mL), T cell stimulation assay, 1 µg/mL mAb [20]: 8790 pg/mL; IFN-γ (pg/mL), T cell stimulation assay, 10 µg/mL mAb [20]: 13100 pg/mL
3 | fully human anti-PD-L1 antibody 192D9E7 (antibody, human IgG4 S228P, kappa, V domains shown, also called 192D9E7 (fully human); 192D9F7) VH: EVQLVESGGGLVQPGGSLRLSCAASGFTFSSYWMSWVRQAPGKGLEWVADIKQDGSEKYYVDSVKGRFTISRDNAKNSLYLQMNSLRAEDTAVYYCTRDKPHWGGVMDAWGQGTSVTVSS VL: not shown | 2.67 | 2.66 | 2.59 | 2.54 | 2.52 | 2.55 | 0.786 | 0.953 | 0.322 | 0.376 | 0.285 | 0.348 | 0.287 | 0.324 | 6150 pg/mL | 13100 pg/mL | 11500 pg/mL | 15200 pg/mL | ~1 nM | ~0.8 nM | IL-2 (pg/mL), MLR, 0.001 µg/mL mAb [18]: 210 pg/mL; IL-2 (pg/mL), MLR, 0.01 µg/mL mAb [18]: 341 pg/mL; IL-2 (pg/mL), MLR, 0.1 µg/mL mAb [18]: 713 pg/mL; IL-2 (pg/mL), MLR, 1 µg/mL mAb [18]: 721 pg/mL; IL-2 (pg/mL), MLR, 10 µg/mL mAb [18]: 770 pg/mL; IFN-γ (pg/mL), MLR, 0.001 µg/mL mAb [21]: 592 pg/mL; IFN-γ (pg/mL), MLR, 0.01 µg/mL mAb [21]: 915 pg/mL; IFN-γ (pg/mL), MLR, 0.1 µg/mL mAb [21]: 1870 pg/mL; IFN-γ (pg/mL), MLR, 1 µg/mL mAb [21]: 2760 pg/mL; IFN-γ (pg/mL), MLR, 10 µg/mL mAb [21]: 2270 pg/mL; IFN-γ (pg/mL), MLR, 0.001 µg/mL mAb [19]: 9030 pg/mL; IFN-γ (pg/mL), MLR, 0.01 µg/mL mAb [19]: 11200 pg/mL; IFN-γ (pg/mL), MLR, 0.1 µg/mL mAb [19]: 19600 pg/mL; IFN-γ (pg/mL), MLR, 1 µg/mL mAb [19]: 22900 pg/mL; IFN-γ (pg/mL), MLR, 10 µg/mL mAb [19]: 15500 pg/mL
